Legend:
Settings in all cases: protein: recombinant; label: 32P 5' end; blunt
[1] = target: T1, GST-Pax6 paired domain (PD) (UniProt P63015 4-130); experiment: EMSA; stronger than WT; EMSA: 2 ug protein, 20000 cpm 32P probe, 1 ug poly(dI-dC), 5% TBE polyacrylamide gel; buffer, salt, pH and temperature not given (as in ref. 35)
[2] = target: GST-Pax6(5a) paired domain (PD5a) (UniProt P63015-2 4-144); experiment: EMSA; EMSA: 2 ug protein, 20000 cpm 32P probe, 1 ug poly(dI-dC), 5% TBE polyacrylamide gel; buffer, salt, pH and temperature not given (as in ref. 35)
[3] = target: T1, GST-Pax6 paired domain (PD); experiment: as above

T1 sequence (P63015 4-130): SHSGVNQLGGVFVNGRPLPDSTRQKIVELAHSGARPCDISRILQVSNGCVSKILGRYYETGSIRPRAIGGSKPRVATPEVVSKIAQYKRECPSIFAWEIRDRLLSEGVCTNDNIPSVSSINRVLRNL
Chain of GST-Pax6(5a) paired domain (PD5a) (P63015 other isoform, or with tags, fused parts or gaps): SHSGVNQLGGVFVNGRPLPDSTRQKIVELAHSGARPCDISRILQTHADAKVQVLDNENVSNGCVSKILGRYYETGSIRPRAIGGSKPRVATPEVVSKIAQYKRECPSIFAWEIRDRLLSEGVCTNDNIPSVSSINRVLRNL

B1: mDkk3 5aCON MUT (dsDNA)
DNA 1: GGAGGAAGCTACCCTGTATCCGATTTTTCGAGAGGTGGAGGAG
DNA 2: CTCCTCCACCTCTCGAAAAATCGGATACAGGGTAGCTTCCTCC
binding result [1]: binds

B2: mDkk3 5aCON OPT (dsDNA)
DNA 1: GGAGGAAGCTATGCTCAGTGAGATGTTCATTGAGGTGGAGGAG
DNA 2: CTCCTCCACCTCAATGAACATCTCACTGAGCATAGCTTCCTCC
binding result [1]: binds

B3: mDkk3 BSAP WT (dsDNA)
DNA 1: CATCTGGGGGCGGGCAGAGCAGCGGGGCGGGGCGGGACGGGCAAGAGGGG
DNA 2: CCCCTCTTGCCCGTCCCGCCCCGCCCCGCTGCTCTGCCCGCCCCCAGATG
binding result [2]: no binding
binding result [3]: binds

From article PMC4100929, “Pax6 Regulates the Expression of Dkk3 in Murine and Human Cell Lines, and Altered Responses to Wnt Signaling Are Shown in FlpIn-3T3 Cells Stably Expressing Either the Pax6 or the Pax6(5a) Isoform”
